According to the DeepSol protein solubility set:

Assay: soluble on expression in E. coli; label from the status in PepcDB or PDB records

Question: For “MTITKLAWRDLVPDTDSYQEIFAQPHLIDENDPLFSDTQPRLQFALEQLLHTRASSSFMLAKAPEESEYLNLIANAARTLQSDAGQLVGGHYEVSGHSIRLRHAVSADDNFATLTQVVAADWVEAEQLFGCLRQFNGDITLQPGLVHQANGGILIISLRTLLAQPLLWMRLKNIVNRERFDWVAFDESRPLPVSVPSMPLKLKVILVGERESLADFQEMEPELSEQAIYSEFEDTLQIVDAESVTQWCRWVTFTARHNHLPAPGADAWPILIREAARYTGEQETLPLSPQWILRQCKEVASLCDGDTFSGEQLNLMLQQREWREGFLAERMQDEILQEQILIETEGERIGQINALSVIEFPGHPRAFGEPSRISCVVHIGDGEFTDIERKAELGGNIHAKGMMIMQAFLMSELQLEQQIPFSASLTFEQSYSEVDGDSASMAELCALISALADVPVNQSIAITGSVDQFGRAQPVGGLNEKIEGFFAICQQRELTGKQGVIIPTANVRHLSLHSELVKAVEEGKFTIWAVDDVTDALPLLLNLVWDGEGQTTLMQTIQERIAQASQQEGRHRFPWPLRWLNWFIPN”, which “soluble on expression in E. coli” value is on record?
Answer: The value was “soluble”.

Question: Which “soluble on expression in E. coli” value does the source give for “MTITSFGPANRIARTAETHPLTWRLRDDGEPVWLDEYQTKDGYAAARKALTQQAPDDIVQSVKDSGLKGRGGAGFPTGVKWGLMPKDESMNIRYLLCNADEMEPNTWKDRMLMEQLPHLLIEGMLISARALKAYRGYIFLRGEYVTAAKHLNRAVAEAKAAGLLGKNILGTGFDFELFVHTGAGRYICGEETALINSLEGRRANPRSKPPFPAAVGVWGKPTCVNNVETLCNVPAIVNNGNDWYKSLAREGSEDHGTKLMGFSGKVKNPGLWELPFGVQARELFEDYAGGMRDGFTLKCWQPGGAGTGFLLPEHLDAQMYAGGIAKVGTRMGTGLAMAVDDSVNMVSLLRNMEEFFAQESCGFCTPCRDGLPWSVKILRAIENGHGQPGDIETLLGLVNFLGPGKTFCAHAPGAVEPLGSAIKYFRSEFEAGIAPASAAMLVPGKSPTVVGALEHHHHHH” here?
Answer: The value was “not soluble”.

Question: For “MTITYSGDELFLQLRGDLLNYLCRKLSKDEAADILQEIYLRWRRQDISSIENPRAFLFTVALNLIRDQARRQAHVQTYANTMQHLFQDKPADYDLAQHCDERRQIEYLQQALDQLPENVRHAFLLFRLDGLTFAEIALQMGISSKSVARYIQHASEHCLTALAQYR”, which “soluble on expression in E. coli” value is on record?
Answer: The value was “not soluble”.

Question: Which “soluble on expression in E. coli” value does the source give for “MTKASDAVKGIINSNNIYTLLLNTGLVNYTKLAREIKSQVDFLTGKKVKINTIVKALTNIEIKSKPKDILLILKQSILTLEYNYKEITTENRNKIPDDAILVIKESNGYSAIIKTTDGNSLVIAKILLPPGSCTTAGITLLITEFLEINGVSVRNIYRLSKEIWIIVDSESAGKAADALNRLLYKSNDRESSPVSLVD” here?
Answer: Its value is “not soluble”.

Question: Which “soluble on expression in E. coli” value does the source give for “MTKFILLALVGLAAAIDFDSSSSESCEDGNGHGHGHGNGNGNGNGNGNGNGGRANGGCETGWRHFRRPSGSWCVRVFGGRLNQGAAQSQCQSFGATLSGLRNLEEARTISNLALSVIGRSSGGIWLGARRTTACAKQHKTTSCSTTSSFRWTDSSASGTAGFVWNNVQPDNSDLNSQCAVLHAGSSAATVSNAVWQPAMMDDVTCSFDPAGRDPRSIYGYVCGKKPSRR” here?
Answer: Its value is “not soluble”.

Question: Which “soluble on expression in E. coli” value does the source give for “MTKIKIVVIVGPTAVGKTALGISLAKAFNGEIISGDSQQVYRQLDIGTAKATQEEQEAAVHHLIDIREVTESYSAYDFVQDAQKSISDIVSRGKLPIIVGGTGLYLQSLLEGYHLGGQVDQEAVKAYRNELEQLDDHDLYERLQVNNITIEQVNRRRAIRALELAQFADELENAETAYEPLIIGLNDDRQVIYDRINQRVNRMIENGLLEEAKWLYEHYPTVQASRGIGYKELFPYFVGEMTLAEASDQLKQNTRRFAKRQLTWFRNRMAVSFTAITAPDYPQVVHDRVRDFLGQKEKSLEHHHHHH” here?
Answer: Its value is “not soluble”.

Question: For “MTKLEVCCYSVDCAQIAEKAGADRVELCCGQSEGGVTPSVGALMQARETVTIPVHPIVRPRGGDFCYSSNDFTIMKNDIARIRDLGFAGVVVGVLDTDGHIDMPRMREIMSVSGSLAVTFHRAFDMCQNPMIALKQLAELNVARILTSGQQQNAELGLALLKDLVAATKDQGPIIMAGAGVRLTNMQKFIDAGIRELHSSAGRTVPSTMRYRKAGVTMCADSDVDEFSHYCVDGEVVEAMKSLLVMGSPLAKHT”, which “soluble on expression in E. coli” value is on record?
Answer: The value was “soluble”.

Question: For “MTKLFLPNTQATQQLGITLGKNLTAGSVILLEGDLGAGKTTLVQGIGKGLGINESIVSPTFTLINEYIEGRIPLYHLDLYRLKPQEVTGLNLESYWEGIEVTPGIVAIEWAERMPYLPDSYFRVCLKSGEDGDRQLEITAVNCQMIDNLISS”, which “soluble on expression in E. coli” value is on record?
Answer: The value was “not soluble”.

Question: For “MTKLQGLQGLKHIKAVVFDMDGTLCLPQPWMFPAMRNAIGLEDKSIDILHFIDTLPTEKEKKEAHDRIELVEAKAMKEMQPQPGLVDIMRYLTKNGISKNICTRNVGAPVETFVKRFIPSELSRFDYIVTREFRPTKPQPDPLLHIASKLNIRPLEMIMVGDSFDDMKSGRSAGCFTVLLKNHVNGHLLLEHKELVDVSVEDLSEIIELIQNMNKESF”, which “soluble on expression in E. coli” value is on record?
Answer: Its value is “not soluble”.

Question: For “MTKTKFEKVLLIVNPKAGQGDLHTNLTKIVPPLAAAFPDLHILHTKEQGDATKYCQEFASKVDLIIVFGGDGTVFECTNGLAPLEIRPTLAIIPGGTCNDFSRTLGVPQNIAEAAKLITKEHVKPVDVAKANGQHFLNFWGIGLVSEVSNNIDAEEKAKLGKIGYYLSTIRTVKNAETFPVKITYDGQVYEDEAVLVMVGNGEYLGGIPSFIPNVKCDDGTLDIFVVKSTGIQAFKDYIGKKLFEDSNENDIFHVKAKSIHIETEEEKEVDTDGESSLHTPCQIELLQGHFTMIYNPAVV”, which “soluble on expression in E. coli” value is on record?
Answer: The value was “soluble”.

Question: For “MTLAIEMKDVMKSFNEKTALRNVNIEVKQGEIFGFLGPSGSGKTTTVKILTSQLLHSVGTVRVLGKDITGPSSIDYKRIGILTDNSGLYERLSIYDNLLLFCDLYDCKKERIDEVLAQVNLLEDKKTLVKKLSKGMKQRVTLARAILHKPDILFLDEPTSALDPVNVQNIHKILKDLNREGTTIFLTTHNMDEAETLCNRIAFLCSGEIVALDTPENLRLQYAKDQIQVVLKDKKKETVQKDELGAKRISEWMKKGELLSIHSYEPTLGDIFIEVTGRGL”, which “soluble on expression in E. coli” value is on record?
Answer: The value was “not soluble”.

Question: Which “soluble on expression in E. coli” value does the source give for “MTLILKRVQLLKDKPRREAIDRFLRQHQLSLEADCEMAIIAEYQQRLVGCGAIAGNVLKCIAIDPSLQGEGLSLKLLTELLTLAYELGRSELFLFTKPCNAALFSGAGFWPIAQAGDRAVLMENSRERLTRYCRQLAMYRQPGRKIGAIVMNANPFTLGHRWLVEQAASQCDWLHLFVVKEDASCFSYHDRFKLIEQGITGIDKVTLHPGSAYLISRATFPGYFLKEQGVVDDCHSQIDLQLFRERLAPALQITHRFVGTEPLCPLTRNYNQRMKSLLEAPGDAPPIEVVELARIEKNGGPVSASRVRELYRQRNWQAVAALVPPGTLSFLMQLAESEHQTA” here?
Answer: Its value is “not soluble”.

Question: With “MTLIRWNPWQDLNTLQRQLNHLFEEDMLPSTLLERTLTRVPAAELHETAEVIYLKLELPGIDAKDVDLQVTDKAVYISGERKSETKTEDKGVFKSEFQYGKFQRVIPLPARIQNTNVTAEYKDGILNLTLPKAEVEKNKVVKINIESAAGLEHHHHHH” as the sequence, how does the “soluble on expression in E. coli” value read?
Answer: Its value is “soluble”.

Question: Which “soluble on expression in E. coli” value does the source give for “MTLSKQLKTYITERFKLNYQDTWSCETVDAVAEDVLPEKYIKNSPLEHKILNTFTYYNDELHEISIYPFLCYLDKELIAIGYLDNFDLDFIFLNDTHQIIIDERYLLQKGGELEHHHHHH” here?
Answer: The value was “not soluble”.

Question: Which “soluble on expression in E. coli” value does the source give for “MTMHREPGGERYYYTWAWFEGPDDAAWRVTGHHTDSGEQYRLDWNLAERSLCVTDSLGRTRCHWWDAQGLVTAYRDEAGQMTTFRWSDEERLLLGMTDAQGGKWRYVYDRLGHLTETHDPLGRVEQTQWHPVWHQPETEVDAAGAAWRYEYDERGNLQAVSDPLHQRTVYGYDRHGQVVRITDARGGDKYLQWNEDGQLMRHTDCSGSQTAWFYDERTRLERVTDAESNSTRYSYDGNGHLTEVMFADGRTERYQPDAAGRLVKYTSPAGQITRWQRDGQGRVRRQTDATGRRTAYEYDAYGRLTTLTNENGESYRFRYDVLDRLTEQTDPGGSRRAYGYNALNAVTAVIYGGERGGEIRHGLERDAAGRLTAKTTPETRTEYRYDAADRLLEIRRRRHDAAEGGEPEVIRFSYDSAGNLLSEETAQGVLQHRYDVQGNRTETQMPDGRTLRYLYYGSGHLQQINLGRDVISEFTRDHLHREVQRSQGRLDTRRMYDRTGRLTRKPTCKGMRGVVPETFIDREYAYSGQDELLKKRHSRQGVTDYFYDTTGRITACRNEAYLDSWQYDAAANLLDRRQGETAQAGAGSVVPFNRITSYRGLHYRYDEYGRVVEKRGRNGTQHYRWDAEHRLTEVAVIRGSTVRRYGYVYDAPGRRVEKHELDAEGKPYNRTTFLWDGMRLAQECRLGRSSSLYIYSDQGSHEPLARVDRAAPGEADEVLYYHTDVNGAPEEMTDGRGNIVWEAGYQVWGNLTHEKETRPVQQNLRFQGQYLDRETGLHYNLYRFYDPDIGKFISGDPISIRGGINLYQYAPNPIKWIDPLGLYNGEGQRELGKYHVFHEHNLDITEYGLSDAEHFSRGNQAIYERMKNDPAFRREMQTKYPGVVEHVQPSSGGKFSTESPPGLTWHHENKPGVLSLVDRLDHKTYHKIYHPLEHHHHHH” here?
Answer: Its value is “soluble”.

Question: Which “soluble on expression in E. coli” value does the source give for “MTMVQVTLEVNGRQVAHEAPPRMHLGDFLRDQARLTGTHLGCEHGVCGACTVLVDGQPVRSCITYAVACEGRQVTTIEGYDGDPVMARLRAAFTKYHALQCGYCTPGMLTTSRDIVLRLPDADEARVRVELSGNLCRCTGYMGIVGAVMSVLRDLREQPDAAVQALRAAAADGRLPAPRGEQPIAFQPFTPSAPAAAQAAPRPAAAASPASGKGNQIVDAFTVPFPAAEVWAFMVDLPAVAACLPGAVIEETDGQRVKGKIAIKFGPMAAAFNGAARLERDEEAMRAVFRGAGQDSLSQSRATGDIAYQVEAVSENETRVKVDLQYALQGPLAQFSRSGLVQDFVRRMIADFGKNVTARLRQPGGEALPQAQFNPVAMFFSVLWMRVKRWFGRGGLEHHHHHH” here?
Answer: Its value is “not soluble”.

Question: Which “soluble on expression in E. coli” value does the source give for “MTNFEYYRDFDDFQRRETINFFLSKFPLASQKQLQDFLEQARQAYVQLRQTNPAHLDWNQTLLYLAQKFLPEKQSEKDRLKKILVLQEQLKVRYEGEIKRQSQQNSELLIQLGQRDEEIIQMQQLFKEKERQLEVYQKQLNEAKEYNHKLEEHYNKTLEEALKEYEQQCTDAIHRRDEEIQAIFTSKLNEKNSEITQLQTYLQSAVDENEALQKQHKLVLFKNQKYEKMVSDLQVDLARIQEINNSLTSEKRDFQRANNDLVKQYNKLKNRLEQKLGEITNAQVNGQTHTVSLADTSQQFHRPQEAVIPQTQVISYTLDDMDDDMEVEETPPTTNKDLPRGATQPKRNSIKRVSKLID” here?
Answer: The value was “soluble”.

Question: For “MTNLTFYAKIGISEEEHDSFVKEHQQISVLQGSDWAKIKNQWQNERIGIYKEEKQVASLSLLIKLLPLGRSIIYIPRGPVMDYLDRDLVAFTMKTLKDYGKTKKALFIKYDPAILLKQYALGQEEEEKPLALAAIKNLQEAGVHWTGLTMEIADSIQPRFQANIYTQENLEMQFPKHTRRLIKDAKQRGVKTYRVSQSELHKFSKIVSLTEKRKNISLRNEAYFQKLMTTYGDKAYLHLAKVNIPQKLDQYRQQLILINQDITRTQAHQKKRLKKLEDQKASLERYITEFEGFTDQYPEEVVVAGILSISYGNVMEMLYAGMNDDFKKFYPQYLLYPNVFQDAYQDGIIWANMGGVEGSLDDGLTKFKANFAPTIEEFIGEFNLPVSPLYHIANTMYKIRKQLKNKH”, which “soluble on expression in E. coli” value is on record?
Answer: The value was “not soluble”.

Question: With “MTNNAVLQLRAERLARATRPFLARGNRVRRCQRCLLPLKSCLCDTLTPSQAKSRFCLVMFDTEPMKPSNTGRLIADILPDTAAFQWSRTEPPQALLELVQHPDYQPIVVFPASYAGEAREVISTPPAGKPPLFIMLDGTWPEARKMFRKCPYLDHLPVISVDLSRLSAYRLREIHAEGQYCTAEVAIALLDLAGDTEAATSLGEHFTRFKTRYLAGKTQHPGNVTALEHHHHHH” as the sequence, how does the “soluble on expression in E. coli” value read?
Answer: The value was “not soluble”.
